In article PMC3463739 (Protein expression and purification, 2012):
Where two headings read alike, the source gives them in different places.

B1: [PPE172_(15)], recombinant polyprotein of 15 tandem repeats of the human titin exon 172 PEVK module (other)
chain: PEPPKEVVPEKKAPVAPPKKPEVPPVKVPEPPKEVVPEKKAPVAPPKKPEVPPVKVPEPPKEVVPEKKAPVAPPKKPEVPPVKVPEPPKEVVPEKKAPVAPPKKPEVPPVKVPEPPKEVVPEKKAPVAPPKKPEVPPVKVPEPPKEVVPEKKAPVAPPKKPEVPPVKVPEPPKEVVPEKKAPVAPPKKPEVPPVKVPEPPKEVVPEKKAPVAPPKKPEVPPVKVPEPPKEVVPEKKAPVAPPKKPEVPPVKVPEPPKEVVPEKKAPVAPPKKPEVPPVKVPEPPKEVVPEKKAPVAPPKKPEVPPVKVPEPPKEVVPEKKAPVAPPKKPEVPPVKVPEPPKEVVPEKKAPVAPPKKPEVPPVKVPEPPKEVVPEKKAPVAPPKKPEVPPVKVPEPPKEVVPEKKAPVAPPKKPEVPPVKV
B2: nebulin SH3 (domain or fragment, human, UniProt P20929 8466-8525, looked up)
chain: TAGKIFRAMYDYMAADADEVSFKDGDAIINVQAIDEGWMYGTVQRTGRTGMLPANYVEAI

Experiments:
[1] = biological target: B2; experiment: ELISA
[2] = biological target: B2; experiment: ELISA; remark: listed apart in the source
[3] = biological target: B2; experiment: SPR
[4] = biological target: B1; experiment: ELISA
[5] = biological target: B1; experiment: ELISA

| Kd [1] [µM] | Kd [2] [µM] | Kd [3] [µM] | KD in the presence of 50 μg/ml RT11 [4] [µM] | KD in the presence of 50 μg/ml RT11 [5] [µM] | Binder |
| --- | --- | --- | --- | --- | --- |
| 7 | 23 | 340 | – | – | B1 |
| – | – | – | 9.69 | 471 | B2 |
